In the data set the target is T1, Nuclease W S925R/E715R/A65R (synthetic construct, S925R,E715R,A65R).
T1 chain: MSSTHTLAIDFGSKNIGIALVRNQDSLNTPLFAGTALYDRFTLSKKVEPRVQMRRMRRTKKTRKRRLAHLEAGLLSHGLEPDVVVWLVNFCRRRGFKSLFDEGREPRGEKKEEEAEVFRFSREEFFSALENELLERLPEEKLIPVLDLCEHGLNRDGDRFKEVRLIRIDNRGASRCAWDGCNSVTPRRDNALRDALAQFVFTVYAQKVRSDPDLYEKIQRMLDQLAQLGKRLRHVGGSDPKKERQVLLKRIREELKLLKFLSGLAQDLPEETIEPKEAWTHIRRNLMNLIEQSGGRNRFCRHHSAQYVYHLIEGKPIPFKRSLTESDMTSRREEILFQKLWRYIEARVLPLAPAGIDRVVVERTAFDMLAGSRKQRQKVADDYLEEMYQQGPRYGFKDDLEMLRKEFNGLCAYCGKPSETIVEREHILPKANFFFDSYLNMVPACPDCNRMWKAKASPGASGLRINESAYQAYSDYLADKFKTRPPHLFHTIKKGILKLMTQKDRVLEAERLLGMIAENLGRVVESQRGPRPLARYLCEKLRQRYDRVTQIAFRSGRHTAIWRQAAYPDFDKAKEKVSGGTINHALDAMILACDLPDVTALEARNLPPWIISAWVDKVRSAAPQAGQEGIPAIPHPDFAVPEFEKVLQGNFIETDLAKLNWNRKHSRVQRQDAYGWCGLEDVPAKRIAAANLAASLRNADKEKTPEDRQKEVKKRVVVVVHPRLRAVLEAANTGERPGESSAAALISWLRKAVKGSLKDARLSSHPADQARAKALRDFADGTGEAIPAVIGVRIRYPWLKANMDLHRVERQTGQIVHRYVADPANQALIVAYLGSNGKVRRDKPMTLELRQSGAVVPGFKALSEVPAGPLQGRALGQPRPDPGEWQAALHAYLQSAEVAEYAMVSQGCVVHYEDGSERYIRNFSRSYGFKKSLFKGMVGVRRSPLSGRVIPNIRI
Description: cell_activity; HEK293T; PAM AAA. The note with it: tags: N-term SV40 NLS, XTEN linker + C-term nucleoplasmin NLS. The procedure: Approximately 16 hours prior to transfection, 25,000 HEK293T cells in DMEM/10% FBS+Pen/Strep (D10 media) were plated into each well of a 96-well plate. On the day of transfection, the cells were 50-90% confluent. For each well to be transfected, a mixture of Lipofectamine 2000™ (ThermoFisher Scientific) and Opti-MEM™ (ThermoFisher Scientific) was prepared and incubated at room temperature for 5 minutes (Solution 1). After incubation, the Lipofectamine 2000™:Opti-MEM™ mixture was added to a separate mixture containing the CRISPR nuclease plasmid (NLS-tagged), RNA guide plasmid, and Opti-MEM™ (Solution 2). In the case of negative controls, the CRISPR nuclease plasmid was excluded. Solutions 1 and 2 were mixed by pipetting up and down, then incubated at room temperature for 25 minutes. Following incubation, the Solution 1 and 2 mixture was added dropwise to each well of a 96-well plate containing the cells. […]
Each Nuclease W variant was cloned as described in Example 2. […] For each target, indel ratios, referring to the percentage of NGS reads comprising indels, were calculated for the reference Nuclease W (SEQ ID NO: 1) and for each Nuclease W variant. The indel ratios shown in Table 5 were calculated as the average of two bioreplicates, each of which contained two technical replicates.

B1: W EMX1-T5 RNA guide ; EMX1-T5 target (W) (ssRNA ; dsDNA)
RNA: UAAACUACAGUGGUGCCUGGGUUUCAGCUACCCUGAGUUUCUCAACUCCGUUGAGACUUCCUCAGGUUCAAGCUGAAAAGAGCAUCUGUCCGGAAGGACCACUCCGGGUUAGGGCAGACCCGGCUCUUGGGCUUCCUUGGUCUUUGACUCUGGAGGAAACCUUCCGGCGUGUCGCAAGACAAGAUGUGAGCCUG
DNA 1: TAAACTACAGTGGTGCCTGG
DNA 2: CCAGGCACCACTGTAGTTTA
B1: the binding signal was determined as 4.84 fold indel vs reference.
